Columns and labels:
[1] = molecular target: IgG in human serum pool from 100 individuals; assay: cell-based or functional assay
[2] = molecular target: Human IgG (fixed concentration, MSD potency assay of Example 4); assay: cell-based or functional assay

B1: pCART239, a variant IdeZ polypeptide of the invention (enzyme)
chain: MDDYQRNATEAYAKEVPHQITSVWTKGVTPPEQFTQGEDVIHAPYLAHQGWYDITKAFNGKDDLLCGAATAGNMLHWWFDQNKTEIEAYLSKHPEKQKIIFRNQELFDLKAAIDTKDSQTNSQLFNYFRDKAFPNLSARQLGVMPDLVLDMFINGYYLNVFKTQSTDVNRPYQDKDKRGGIFDAVFTRGNQTTLLTARHDLKNKGLNDISTIIKQELTEGRALALSHTYANVSISHVINLWGADFNAEGNLEAIYVTDSDANASIGMKKYFVGINAHGHVAISAKKIEGENIGAQVLGLFTLSSGKDIWQKLSGGGHHHHHH
B1 gave an enzyme concentration at which all IgG were converted to scIgG, serum pool with 0.1 mg/ml pCART243 (SDS-PAGE) [1] of 0.5 µg/ml.

B2: N240, a variant IdeZ polypeptide of the invention (enzyme)
chain: MDDYQRNATEAYAKEVPHQITSVWTKGVTPPEQFTQGEDVIHAPYLAHQGWYDITKAFNGKDDLLCGAATAGNMLHWWFDQNKTEIEAYLSKHPEKQKIIFRNQELFDLKAAIDTKDSQTNSQLFNYFRDKAFPNLSARQLGVMPDLVLDMFINGYYLNVFKTQSTDVNRPYQDKDKRGGIFDAVFTRGNQTTLLTARHDLKNKGLNDISTIIKQELTEGRALALSHTYANVSISHVINLWGADFNAEGNLEAIYVTDSDANASIGMKKYFVGINAHGHVAISAKKIEGENIGAQVLGLFTLSSGKDIWQKLS
Work on B2 yielded a Relative Potency (%) In Serum, Plate 1 (MSD, from EC50; reference IdeS) [1] of 151%, a Relative Potency (%) In Serum, Plate 1 (MSD, from EC50; reference IdeS; separate dilutions) [1] of 137% and a Relative Potency (%) In Serum, Plate 2 (MSD, from EC50; reference IdeS) [1] of 132%. For the same binder, the Relative Potency (%) In Serum, Plate 2 (MSD, from EC50; reference IdeS; separate dilutions) [1] was 146%, the Relative Potency (%) In serum, Mean value (MSD, from EC50; reference IdeS) [1] was 142% and the Relative Potency (%) In serum, Mean value (MSD, from EC50; reference IdeS; separate dilutions) [1] was 142%. The mean relative potency (EC50Ref/EC50Test x 100%), MSD potency assay of IgG cleavage [2] was 300%.

Source: patent US20260028608A1
